B1: Saccharomyces cerevisiae Csm3-Tof1 complex (complex, S. cerevisiae)
chain 1: MDQDFDSLLLGFNDSDSVQKDPTVPNGLDGSVVDPTIADPTAITARKRRPQVKLTAEKLLSDKGLPYVLKNAHKRIRISSKKNSYDNLSNIIQFYQLWAHELFPKAKFKDFMKICQTVGKTDPVLREYRVSLFRDEMGMSFDVGTRETGQDLERQSPMVEEHVTSAEERPIVADSFAQDKRNVNNVDYDNDEDDDIYHLSYRNRRGRVLDERGNNETVLNNVVPPKEDLDALLKTFRVQGPVGLEENEKKLLLGWLDAHRKMEKGSMTEEDVQLIQSLEEWEMNDIEGQHTHYDLLPGGDEFGVDQDELDAMKEMGF
chain 2: MSADLQQGTTNAADFSLTVLRARIALLATAIGGPDYTSQIDPPPYKLGDDCLACLKDLKRWFKLVDDQQKRWDVAMAVAEYRILTDDLLPILIDWENKCSLAAKLAKNNPDHEEFRNKAYYDKIALNCLQLLVLMTWPLIVTEQSSSNQITLYGELKKHQLVYKKTILSMESGKVLRAAIRLALDVIKIDRLSRTPRDNMVLKLVLNFFRNVIAIEPGEFTINTKKSMPKKGITSIDTLPPNVSMDDISLNTVISSFHKNKVFGFLLTLTSSLSKEFDQDFINIPLLEIMFYFTKDVNQELLFPRQFETGTHSKVVNKNESSSANNIVTSAGFELSKLLQKEHQMRKNVIKHTSARHSRFGGLLSIQTPDKTRLTVSGSQALVDEKIALQKLDDSKKWNKRIIKKHQSVAAEGLPNSLLNSQTGKAIFFTESNGKHFKEFINNFIDSGFNILLHSVTNYFTTEQDRMVTLEQVEYLLFFAWFVKYQLLRSKIDNSADIKQVSEALKEVTFILVSSLLRSAYDLKNWTVTHAGMIAFNELLNLVSRTKAAQEEDSTDIEFIVSRLFSDERIQLLSNLPKIGSKYSLQFMKSCIELTHSVLKVLEQYSDDKTLVIEGKSRRQKKFNISEGDITKLIEEENVDRDEALDILTSSLRSIEVNFQKVQANYMTEPVIETYINFLERFRELEDDSIKKVFSFFHRVFVQAKEQALLFRFDLIILLREMLSPDGLDRMSRSRKYVSQFSDYFLARLKKRLKKSPAWFVGLLFPPLHNSEVGFYQRYGEYNVLNNESMYAAPASQFKPIPDEEALPPSILLDMKYGVLVSTLLDDGKTELLDQLLKHITHTLDIFKSWLTVNVNAGKETVNPPNEYFTLTGVLNNDPIFKDKDYRALLLLIGYSIPRKINEPCFLPGTVEVSDLTVSCELVKKYLSTPFETPNGLPSSSYLLRVRSEKDSFSHNEQDGWEGDDDYDYNDPYIVPDDQILSKSDAAYFKDLDNNASDKLKGTKFSKGIARSKKKDKRKRRKGEAKTNLPMFGDQDDERPQTVRERHGVFSKEFISDSEDDEDLMNPIFFENETYMRWLLDKNNGQLTEDRYIQFAKFAAERMNNGGVVTGDYTSLFGGSIPSIESIRATESSSFAPDKSLISLASHVASEMSIFDVNNNNNNQLSDDDVNSESRNSLGSSQPSNSQNMFQSEVYSRKESTKRSLEASAADESDEDEEAIRLFGKKSRVVLSQGDSDD
notes: Csm3, S. cerevisiae, from strain yAE48 (Yeeles et al., 2017); Tof1, S. cerevisiae, from strain yAE48 (Yeeles et al., 2017); Construct in Yeeles et al., 2017; also called ScCsm3/Tof1

Experiment [1] deals with T1, Drosophila CMG (Cdc45-MCM-GINS helicase; DmCMG).
T1 construct: gene Mcm2; with Cell division control protein 45; DNA replication complex GINS protein PSF1; DNA replication complex GINS protein PSF2; DNA replication complex GINS protein PSF3; DNA replication complex GINS protein SLD5
The experiment in a line: cryo-EM structure. It counts as binding, Drosophila melanogaster. Particulars: DNA fork bound, 5 mM ATP elution buffer, 2 mM Mg(OAc)2, pH 7.6; bipartite MCM inter-protomer ATPase sites; states 1A, 1B, 2A, 2B at 3.70-4.46 Å; ADP at loosened interfaces, arising during ATP turnover. The source says:
cryo-EM structure on Drosophila CMG (Cdc45-MCM-GINS helicase; DmCMG) | ATP at inter-protomer interfaces is shown in red.

In experiment [2] the target is T2, Saccharomyces cerevisiae CMG helicase (Cdc45-MCM-GINS) (S. cerevisiae, UniProt P29469 1-868; P24279 1-971; P30665 1-933; P29496 1-775; P53091 1-1017; P38132 …).
T2 construct: Mcm2, S. cerevisiae, subunit of the CMG from strain yJCZ3 (Zhou et al., 2017); Mcm3, S. cerevisiae, subunit of the CMG from strain yJCZ3; Mcm4, S. cerevisiae, subunit of the CMG from strain yJCZ3; Mcm5, S. cerevisiae, subunit of the CMG from strain yJCZ3; Mcm6, S. cerevisiae, subunit of the CMG from strain yJCZ3; Mcm7, S. cerevisiae, subunit of the CMG from strain yJCZ3; Cdc45, S. cerevisiae, …
As to the kind of experiment: DNA fork-affinity purification with silver-stained gel and negative-stain EM 2D averaging; desthiobiotin DNA fork on streptavidin magnetic beads; 250 nM CMG mixed with 350 nM Mrc1 + Csm3-Tof1, 2 mM ATPγS, then 80 nM Polε; Protein Binding Buffer, 30°C; eluted with biotin; dropouts without Mrc1 or Csm3-Tof1; parallel experiment without Polε on an M.HpaII-labeled fork. The following applies: both partners purified.

Experiment [3] concerns the target T2, Saccharomyces cerevisiae CMG helicase …. As to the kind of experiment: pull-down + other: negative-stain EM; 250 nM CMG held on Calmodulin Affinity Resin, 500 nM Ctf4 added, 1 mM ATPγS, 30°C; eluted with EDTA/EGTA, cross-linked with 0.01% glutaraldehyde and imaged. The following applies: both partners purified.
Experiment [4] has as its target B1. The experiment in a line: DNA-affinity purification; desthiobiotin fork or blunt duplex DNA on streptavidin magnetic beads; 350 nM Mrc1, 350 nM Csm3-Tof1 or 350 nM MCT pre-incubated on ice; Protein Binding Buffer, 30°C; eluted with biotin. The following applies: both partners purified.

Regarding `Nc1ncnc2c1ncn2[C@@H]1O[C@H](COP(=O)(O)OP(=O)(O)O)[C@@H](O)[C@H]1O` [ADP], the cryo-EM structure entry in experiment [1] was “The C-terminal subunit in the spiral is ADP bound as are the non-engaged seam subunits”.

On to B1, for which, in experiment [2], the binding result is listed as “binds”.

B2: Saccharomyces cerevisiae Ctf4 trimer (natural protein, S. cerevisiae, UniProt Q01454 1-927, looked up)
chain: MVSVIDKLVFDFGGKTLVSLAPDNNTLCVANKNGLTKILKTNNPEEEPETLDSSKLVSSIKCYSNSHFLMTTMQGDALRYNIDSSQEELLARFALPLRDCCVIHSGKMAVFGGDDLELILLELDDETHKKHAIKIDEQVSQISYNSQMNILAVSMINGKVQIFSLTSTIPNKVHELNDYIVANSYDDTHRDKILSNMMDDIDKDNDNDLSETADPDENNVADPEFCAANRICTRVAWHPKGLHFALPCADDTVKIFSIKGYSLQKTLSTNLSSTKAHFIDLQFDPLRGTYIAAVDLNNKLTVWNWETSEIHYTREFKRKITNIAWKIQADSKTLDLVLGTWSGSIAIVQNLAESVVSNIPDQSVAESSTKHGLFVDSESDLENLEGNDDINKSDKLFSDITQEANAEDVFTQTHDGPSGLSEKRKYNFEDEEDFIDDDDGAGYISGKKPHNEHSYSRVHKTHSFPISLANTGKFRYMPFSPAGTPFGFTDRRYLTMNEVGYVSTVKNSEQYSITVSFFDVGRFREYHFEDLFGYDLCFLNEKGTLFGQSKTGQIQYRPHDSIHSNWTKIIPLQAGERITSVAATPVRVIVGTSLGYFRSFNQFGVPFAVEKTSPIVALTAQNYRVFSVHYSQFHGLSYSLSELGTSSKRYYKRECPLPMSLPNINSDMKKDANLDYYNFNPMGIKSLFFSSYGDPCIFGSDNTLLLLSKWRSPEESKWLPILDSNMEIWKMSGGKETTDIHVWPLALAYDTLNCILVKGKHIWPEFPLPLPSEMEIRMPVFVKSKLLEENKAILNKKNEIGADTEAEEGEEDKEIQIPVSMAAEEEYLRSKVLSELLTDTLENDGEMYGNENEVLAALNGAYDKALLRLFASACSDQNVEKALSLAHELKQDRALTAAVKISERAELPSLVKKINNIREARYEQQLK
notes: Ctf4, S. cerevisiae, expression plasmids of Gambus et al., 2009; Called a trimer in the methods; Construct in Gambus et al., 2009; also called ScCtf4; source: E. coli BL21 (DE3), purified (Ni-NTA, MonoQ, Superdex 200)
Regarding B2, in experiment [3], the binding result is reported as “binds”.

B3: Saccharomyces cerevisiae Mrc1 (natural protein, S. cerevisiae, UniProt P25588 1-1096, looked up)
chain: MDDALHALSSLTAKKRTTTYKKVAVPILDENDNTNGNGPNDIDNPPELTGNGFLFANATLNRVKNRLEGKKAPEQNHNNGKDRSENSLPTQLISNLYDGGEELEKSEVKDNSYSEKNVSSSFTQTQRIPVSIQQDKVFNVPIHSVNDGKPTQLIKEDGLVNETSQALKTPLTTGRPGATQRIDSSGATSQTQPIKSIEPQSQIITTSSNHSNALSPKIPIIPTELIGTSPLFQSIQNRGPDTQMDVPPQTAHDEDKTQAIGIPQATHQEQKTQIDTVAQTLQDEVPHTLKIREIQSELASEDSKREKARNVEYKKPQKPIPTKKFFSKESFLADFDDSSSNEDDDIKLENAHPKPVQNDDELHENKSVELNLTDETRINEKRVPLLSSYANNLKREIDSSKCITLDLDSDSDEYGDDDMDSIKLSKDESVLPISQLSKATILNLKARLSKQNQKLSQRPNKSKDPKVDHNVLLNTLRKASRKQILDHQKEVIETKGLKLEDMAKEKEIVENLLEQEILRNKRIRQKEKRREKLEENDFQLNAHDSGSDSGSESSGFALSGNEIADYESSGSENDNRRESDSEKEDDEIILKQKKSHHVKHIINESDSDTEVEAKPKEKADESLPKRIAINLGHYGDNIGEDTDKFQETNVLDTQNIEEVMAERNTIENEVKDDVYVNEEADEAIRRQLIDKEKLQLKQKEKEHEAKIKELKKRGVTNFFEMEAEESEDEWHGIGGADGEGSDDYDSDLEKMIDDYSKNNFNPHEIREMLAAENKEMDIKMINKILYDIKNGGFRNKRAKNSLELELSDDDEDDVLQQYRLKRRELMRKRRLEIGDDAKLVKNPKSSAFFESMVEDIIEYKNPFGAEEEYNLDITSTATDLDTQDNSINVGDNTGNNEQKPVDQKNKKVIISEDFVQKSLSFLKSNNYEDFETDKELSRIQHGNDEAIEDLYTLKQNSSIKSFTNSQTDSTTSKTVNTIIDLEKRPEDEDEVENGDTSLVGVFKHPSIIKSFASRTDINDKFKEGNKTVKILKSYKTVGSSKASITYMGKTRKLIAPKRKTEGSHRYHHDHHNKKMKMKTKTKSNKLFESGQDSFDN
notes: Mrc1, S. cerevisiae, from strain yJY32 (Yeeles et al., 2017); Construct in Yeeles et al., 2017; also called ScMrc1; FLAG-Mrc1; source: S. cerevisiae strain yJY32, purified (anti-FLAG M2 agarose, MonoQ)
B3: the binding result in experiment [4] and in experiment [2] was “binds” each time.
